Laboratory results reported in the nanobody polyreactivity screen of Harvey et al. (2022).

Assay: yeast display, Sf9 membrane polyspecificity reagent, FACS + sequencing; frameworks hold sequencing errors
Outline: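 Using colony PCR, genes from sorted yeast display clones were amplified, then sequenced on MiSeq at 2 × 250 and filtered by CDR length. The clones had been stained with 10% biotinylated, detergent-solubilized Sf9 membrane reagent for 1 hour at 4 °C and sorted by FACS into low and high (top ~1%) gates on anti-HA and streptavidin fluorescence. Polyreactivity labels come from the gate of origin.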

Sequence | polyreactivity (PSR sort gate)
QVQLVESGGGLVQAGGSLRLSCAASGYIFAVYAMGWYRQAPGKEREFVAVITWRGGSTYYADSVKGRFTISRDNAKNTVYLQMNSLKPEDTAVYYCAADVYAQYDYWGQGTQVTVSS | high polyreactivity
QVQFVESGGGLVQAGGSLRLSCAASGSTFQGYAMGWYRQAPGKERELVAAISRSGGRTYYADSVKGRFTISRDNAKNTVYLQMNSLKPEDTAVYYCAAEGHELTEGDSWGQGTQVTVSS | low polyreactivity
QVQLVESGGGLVQAGGSLRLSCAASGFTFYWYAMGWYRQAPGKERELVAAITIGGSTYYADSVKGRFTISRDNAKNTVYLQMNSLKPEDTAVYYCNVYGYGTEYDYWGQGTQVTVSS | high polyreactivity
QVQLVDSGVGLVQAGGSLRLSCAASGRIFDYYAMGWYRQAPGKERELVAAITSGGTTTYYADSVKGRFTISRDNAKNTVYLQMNSLKPEDTAVYYCAASFFGDGYIDLWYKFDYWGQGTQVTVSS | low polyreactivity
QVQLVESGGGLVQAGGSLRLSCAASGFTFLYNVMGWYRQAPGKERELVAAISQSGTDTYYADSVKGRFTISRDNAKNTVYLQKNSLKPEDTAVYYCATEYYSQPRDDYWGQGTQVTVSS | low polyreactivity
QVQLVESGGGLVQAGGSLRLSCAPSGRIFQYYTMGWSRQAPGKDRELVATISRRGGRTYYADSVKGRFTISRDNAKNTVYLQKNSLKPEDTAVYYCAARTYSYEYDYWGQGTQVTVSS | high polyreactivity
QVQLVESGGGLVQAGGSLRLSCAASGITFVINGMGWYRQAPGKESELLAAISKSGRTYYADSVKGRFTISRDNAKNTVFIQMNSLTPEDSAVYYCNNVPYPSNDYWGQGTQVTVSS | high polyreactivity
QVQLVESGGGLVQAGGSLRLSCAASGSIFLIYAMGWYRQAPGKERELVAAISSGGSTYYADSVKGRFTISRDNAKNTVYLQMNSLKPEDTAVYYCATYSTSVAFHLYYWGQGTQVTVSS | low polyreactivity
QVQHVESGGGLVQAGGSLRLSFAASGSTFAWYPMGWYRQAPGKERELVAAITRDGSTYYADSVKGRFTISRDNAKNTVYLQMNSLKPEDTAVYYCAADLSYWRGGHSRYYWGQGTQVTVSS | low polyreactivity
QVQLVESGGGLVQAGGSLRISCAASGSIFTINAMGWYRQAPGKERELVARITSVDSTNYADSVKGRFTISRDNAKNNVHLQMNSLKPEDTAVYYCNATFGYPFVDYDDYWGQGTQVTVSS | low polyreactivity
QVQLVESGGGLVQAGGSLRLSCAASGFTFFSYAMGWYRQAPGKERELVATITWSGGTYYADSVKGRFTISRDNAKNTVYVQMNSLKPEDTAVYYCNARRHYRRYSYRHNYWGQGTQVTVSS | high polyreactivity
QVQLVESGGGLVQAGGSLRLSCAASGSIVYPYAMGWNRQAPGKERELVAAITGHGGSTYYADSVKGRFTISRDNAKNTVYLQMNSMKPEDTAVYYCAAYRVVYSDAYYYWGQGTQVTVSS | low polyreactivity
QVQLVESGGGLVQAGGSLRLRCAASGSIFARNAMGWYRQAPGKERELVASITWSGASTFYADSVKGRFTISRDNAKYTVYLQMNSLKPDVTAVYYCAATDQKLSLDYSSYEYWGQGSQVTVSS | low polyreactivity
QVQLVESGGGLVQAGGSLRLSCAASGSTFGYYAMGWYRQAPGKERELVAVITRGGSTYYADSVKGRFTISRDNAKNTVYLQMNSLKQEDTAVYYCNARVLAVHYGYWGQGTQVTVSS | high polyreactivity
QVQLVESVGGLVQAGGSLRLSCAASGITFYWYAMGWYRQAPGKERELVASITGNGGGTSYADSVKGRFTISRDNAKNTVYLQMNSLKPEDTAVYYCNTSVGGKEYDSWGQGTQVTVSS | low polyreactivity
QVQLEESGGGIVQAGGSLRLSCAASGITFYWYAMGWYRQAPGKERELVASITGNGGGTSYADSVKGRFTISRDNAKNTVYLQMNSLKPEDTAVYYCNTSVGVKDYVSWGQGTQVTLSS | low polyreactivity
QVQLVETGGGLVQAGVSLRLSCAASGRIFEVNVMGWYRQAPGKERELVAAITTGGGSTYYADSVKGRFTISRDNAKNTVYLQMNSLKPEDTAVYYCATDYSSYLYDYYTGVGGYDYWGQGTQVTVSS | low polyreactivity
QVQLVESGGGLVQAGGSLRLSCAASGRIFNYNAMGWYRQAPGKERELVAAISSGGDTYYADSVKGRFTISRDNAKNTVYLQINSLKPEDTAVYYCGSTFVVKGTRFGYWGQGTQVTVSS | high polyreactivity
QVQLVESGGGLVQAGGSLRLSCAASGRIFYQNAMGWYRQAPGKARELVADSASGGSTYYADSVKGRFTISRDNAKNTVYLQMNSLKPEDPAVYYCATAVLYGDGWYYYWGQGTQVTVSS | low polyreactivity
HVQLVDSGGGLVQAGGSLRLSCAASGSIFRYYTMGWYRQAPGKERELVAAISWSGGRTYYAHSVKGRFTISRDKAKNTVYLQMNSLKPEDTAVYYCAAVRPYYYPLPTVPNLPYDYWGQGTQVTVSS | high polyreactivity
QVQLVESGGGLVQAGGSLRLTCAASGIIFRFYGMGWYRQEPGKEREFVAAISGGGGSTYYADSVKGRFTISRDNAKKTVYLQMNSLKPEDTAVYYCARYTYRSAFEYWGQGTQVTVSS | high polyreactivity
QVQLVESGGGLVQAGGSLRLSCAASGRIFPAYVMGWYRQAPGKERELVATIDNGGCTYYADSVKGRFTISRDNAKNTVYLQMNSLKPEDTAVYYCARDRHVRWGLKMDYWGQGTQVTVSS | low polyreactivity

Sequence | polyreactivity (PSR sort gate)
QVQLVESGGGLVQAGGSLRLSCAASGRIFGRNAMGWYRQAPGKEREFVAAISRSGASTYYADSVKGRFTISRDNAKNTVYLQMNSLKPEDTAVYYCARTTRQSSAYTYSDEYDYWGQGTQVTVSS | high polyreactivity
QVQLVESGGGLVQAGGSLRLSCAASGSIFYSYAMGWYRQAPGKERELVAAITDSGDDTYYADSVKGRFTISRDNAKNTVYLQMNSLKPEDSAVYYCAAEQIYYTSDSSYFVTYDDWGQGTQVSVSS | high polyreactivity
QVQLVESGGGLVQAGGSLRLSCAASGRTYNVMGWYRQAPGKERYLVAAITWGGGSTHYADSVKGRFTISRDNAKNTVYLQMISLKPEDTAVYYCAADLLYKSTRVDYWGQGTQVTVSS | low polyreactivity
QVQLVESGGGLVQAGGSLRLSCAASGRIFLFYAMGWYRQAPGKERELVASITSSGGDTSYYADSVKGRFTISLDNAKNTVYLQMNSLKPEDNAVYYCASRPWTSWRYYYWGQGTQVTVSS | high polyreactivity
QVQLVESGGGLVQAGGSLRLSCAASGFTLKYYAMGWYRQAPGKERELVAAITSSGGSTYYADSVKGRFTISRDNAKNTVYLQMNSLKPEDTAVYYCNAVTVYKHGSWGQGTQVTVSS | high polyreactivity
QVQLVESGGGLVHAGGSLRLSCAASGSILARYARGWYRQEPGKERELVAAISSRGGSTYYADSVKGRFTISRDYAKNTVYLQMNSLKPEDTAVYYCAASVYLQVEYDYWGQGTQVTVSS | low polyreactivity
QVQLVESGGGLVQAGGSLRLSCAASGLIFWGYTMGWYRQAPGKERELVAAISRSGGRTYYADSVKGRFTISRDNAKNTVYLQMNSLKPEDTAVYYCAARYYYWGQGTQVTVSS | high polyreactivity
QVQLVESGGVLVQAGGSLRLSCAASGSIFCVNAMGWSRQAPGKERELVAAISWRGASTYYADSVKGRFTISRDNAMNTVYLQMNSLKPEDTAVYYCAAKCTGGDPYYAFDYWGQGTHVTVSS | low polyreactivity
QLQLDESRGGLVQAGRSLRLSCAASGGNFRYYAMGWYRQAPGKERELDAAISSGGSTNYADSVKVRFTISRDNAKNTVYLQMNSLKREDTAVYYCAADVIYYYAYYTYDYWGQGTQVTVSS | low polyreactivity
QVQLVESGGGLVQEGGSLRLTCAASGRTFTVNAMGWYRQAPGKERELVARISYGGARTYYADSVKGRFTISRDNAKNTVYLQMNSLKPEDTAVYYCAAPGPRKYEYDYWGQGTQVTVSS | high polyreactivity
QVQLVESGGGLVQAGGSLRLSCAASGITFGPYAMGWYRQAPGKERELVAAITWGGGSTYYADSVKGRFTISRDNAKNTVYFQMNSLKPEDTAVYYCAASVEWYGWYPYDFWGQGTQVTVSS | low polyreactivity
QVQLVESGGGLVQAGGSLRLSCAASGRTFQGYSMGWYRQAPGKERELVAAISRSGGRTYYADSVKGRFTISRDNAKNTVYLQMNSLKPEDTAVYYCATDAFRDYGYWGQGTQVTVSS | high polyreactivity
QVQLVESGGGLVQAGGSLRLICAASGRTFGTHTMGWYRQAPGKERELVAAISSRGGTTYYADSVKGRFTISRDNAKNTVYLQMNSLKPEDTAVYYSNTGTRAIQRDGFEYWGQGTQVTVSS | low polyreactivity
QVQLVESGGGLVQAGGSLRLSCAASGSIFKTNAMGWYRQAPRKERELVAGISNVGSTNYADSVKGRFTISRDNAKNTVYLQMNSLKPEDTAVYYCAAPYTSQTIPDYVRYFIEYDYWGQATQVTVSS | low polyreactivity
QVQLVESGGGLVQAGGSLRLSCAASGSIIWFYAMGWYRQAPGKEWELVAAISGSDTSTYYADSVKGRFTISRDNAKNTVYLQMNSLKPEDTSVYYCAADDGTTFGYGYWGQGTQVTVSS | low polyreactivity
QVQLVESGGGLVQAGGSLRLSCAASGSIFVTNVMGWYRQAPGKERELVAVINSGGRTYYADSVKGRFTISRDNAKNTVYLQMNSLKPEDTAVYYCAKDSWSSFQSLYPEFDYWGQGTQVTVSS | low polyreactivity
QVQLVESGGGLVQAGGSLRLSCAASGRIFRHNTMGWYRQAPGKERELDAGITASGGDTYYADSVKGRFTISRDNAKNTVYLQMNSLKPEDTAVYYCAKRGQSYTYRRYDYWGQGTQVTVSS | low polyreactivity
QVQLVESGGGLVQAGGSLRLSCAASGGIFARYAMGWYRQAPGKEREFVAAISFSGASTYYADSVKGRFTISRDNAKNTVYLQMNSLKPEDTAVYYCAAYWDAEGRRYTRLDYWGQGTQVTVSS | low polyreactivity
QVQHVESGGGLDQAGGSLRLSCAASGRTFSYYTMGWYRQAPGKERELVARISNRGTNTYYADSVKGRFTISRDNSKNTVYLQMNSLKPEDTAVYYCAKYYYTSIVGYDSWGQGTQVTVSS | low polyreactivity
QVQLVESCGGLVQAGGSLSLSCAASGSTFNHYAMGWYRQATGKEREFVAAISWSGGSTYYADYVQGRFTISRDNAKNTGYLQMNSLKPEDTAVYYCNAAVSQFSHRWRRRLTFDYWGQGTQVTVSS | high polyreactivity
QVQHVESGGGLVQAGGSLRLSCAASVSIFYGYAMGWSRQAPGKERELVATIRFITGSTYYADSVKGRFTISRDNAKNTVYLQMNSRKPEDTAVYYCAAVYVGYYDNYDYWGQGTQVTVSS | low polyreactivity
